Values quoted from earlier work as cited in paper PMC6899468.

Target: neuropilin-1 (Homo sapiens) (UniProt O14786)
Sequence of UniProt O14786 (O14786 22-856): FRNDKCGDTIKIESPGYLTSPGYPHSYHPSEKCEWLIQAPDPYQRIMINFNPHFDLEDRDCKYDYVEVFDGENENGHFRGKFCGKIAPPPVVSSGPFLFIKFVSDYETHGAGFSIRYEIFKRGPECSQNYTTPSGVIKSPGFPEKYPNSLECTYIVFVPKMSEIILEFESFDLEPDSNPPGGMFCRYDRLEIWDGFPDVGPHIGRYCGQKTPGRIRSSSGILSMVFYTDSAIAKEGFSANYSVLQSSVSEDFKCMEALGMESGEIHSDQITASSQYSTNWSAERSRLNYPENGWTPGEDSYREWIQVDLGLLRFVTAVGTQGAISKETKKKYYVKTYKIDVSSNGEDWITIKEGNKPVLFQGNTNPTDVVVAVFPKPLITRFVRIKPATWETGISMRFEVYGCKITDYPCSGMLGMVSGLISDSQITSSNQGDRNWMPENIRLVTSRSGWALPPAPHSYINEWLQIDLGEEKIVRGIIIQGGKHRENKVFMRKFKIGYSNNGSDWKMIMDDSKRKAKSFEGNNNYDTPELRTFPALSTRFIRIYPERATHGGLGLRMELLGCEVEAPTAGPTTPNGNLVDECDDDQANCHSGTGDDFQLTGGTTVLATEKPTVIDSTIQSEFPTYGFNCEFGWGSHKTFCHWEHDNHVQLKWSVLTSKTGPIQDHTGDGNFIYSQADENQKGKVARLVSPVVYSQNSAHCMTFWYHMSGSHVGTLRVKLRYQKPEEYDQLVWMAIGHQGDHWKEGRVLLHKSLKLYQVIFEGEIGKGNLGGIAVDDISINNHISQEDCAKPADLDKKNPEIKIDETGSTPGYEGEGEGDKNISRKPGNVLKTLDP

## chromogranin A fragment hCgA1-373 1-373 (from UniProt P10645)
  Kd: 3.49 nM
